The source of these data is patent US20200010554A1 (TUSK THERAPEUTICS, published 2020).

Where two headings read alike, the source gives them in different places.

Test [1] concerns the target T1, human CD25 expressed on cells (Karpas 299, SU-DHL-1, SR-786, in vitro differentiated Treg cells, PBMC) (human, UniProt P01589 22-272).
T1 construct: also called CD25 expressing cells
T1 sequence: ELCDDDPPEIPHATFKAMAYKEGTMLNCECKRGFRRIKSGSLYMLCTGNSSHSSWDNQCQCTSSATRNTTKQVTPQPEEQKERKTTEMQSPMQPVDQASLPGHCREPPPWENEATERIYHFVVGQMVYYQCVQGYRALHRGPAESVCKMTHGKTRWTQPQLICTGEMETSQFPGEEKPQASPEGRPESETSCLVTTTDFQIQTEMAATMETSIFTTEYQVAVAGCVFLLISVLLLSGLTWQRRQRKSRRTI
Description: flow cytometry titration on Karpas 299 cells, AF647 secondary antibody. (In flow cytometry, cells or beads pass a laser one at a time.)

Test [2] addresses T1, human CD25 expressed on cells (Karpas …). The test is described as above. The source holds these as a separate data set.

B1: Antibody 10 (antibody, V domains shown)
VH: QVQLQESGPGLVKPSETLSLTCTVSGFSLTSYGIQWIRQPPGKGLEWIGVIWAGGSTNYNSALMSRVTISKDNSKNQFSLKLSSVTAADTAVYYCARAYGYDGSWLAYWGQGTLVTVSS
VL: EIVLTQSPATLSLSPGERATLSCRASSSVSYMHWYQQKPGQAPRPLIFATSNLASGIPARFSGSGSGTDFTLTISSLEPEDFAVYYCQQWSSNPPTFGGGTKLEIK
notes: also called Ab10
One may read the EC50 (read off the curve) as the concentration needed to bring the measured effect to its halfway point. Higher therefore signals a need for much substance. For B1, the concentration giving a half-maximal response (EC50 (read off the curve)) in test [1] was approximately 0.3 µg/mL.

B2: Antibody 11 (antibody, V domains shown)
VH: QVQLQESGPGLVKPSETLSLTCTVSGFSLTSYGIQWIRQPPGKGLEWIGVIWAGGSTNYNSALMSRVTISKDNSKNQFSLKLSSVTAADTAVYYCARAYGYDGSWLAYWGQGTLVTVSS
VL: QIVLTQSPATLSLSPGERATLSCRASSSVSYMHWYQQKPGQAPRPLIFATSNLASGIPARFSGSGSGTDYTLTISSLEPEDFAVYYCQQWSSNPPTFGGGTKLEIK
notes: also called Ab11
Regarding B2, the 50% effective concentration (EC50 (read off the curve)) in test [2] is approximately 0.3 µg/mL.
